According to patent US11505583B2, “Proteins for the treatment of epithelial barrier function disorders” (Second Genome, Inc., priority 2018, dated 2022):

Assays:
[1] = Aggregation by analytical size exclusion chromatography (Example 9); type: physicochemical
Procedure: The stability of SG-11 (SEQ ID NO:9) was evaluated following the incubation at 37° C. for one week and at 4° C. for 3 weeks in Buffer C (100 mM sodium phosphate, pH 7.0, 0.5 M sorbitol). The stability was assessed by monitoring the aggregation formation with analytical size exclusion chromatography (SEC) equilibrated with Buffer D (100 mM sodium phosphate, pH 7.0, 10% glycerol). […] The cause of the aggregation was investigated as follows. There are two cysteine residues found in SG-11 at the positions 147 and 151 (relative to SEQ ID NO:7). […] As free sulfhydryl groups could cause aggregation by forming unpreferable intermolecular disulfide bonds, it was examined whether the presence of reducing agent, such as β-mercaptoethanol, could prevent the aggregation.

[2] = Forced degradation under stress conditions (SEC-HPLC, LC/MS/MS) (Example 8); type: physicochemical; conditions: for Aggregates (SEC-HPLC): 2 weeks
Procedure: SG-11 (SEQ ID NO:9) was also tested under a series of stress conditions shown in Table 8 below to further characterized the stability of recombinant, purified SG-11. Stressed samples were analyzed either by SEC-HPLC for the presence of aggregates and/or degradants. LC/MS/MS was performed for determination of levels of deamidation and oxidation.
For this analysis, SG-11 (SEQ ID NO:9) was present at a concentration of 1 mg/ml in PBS (50 mM sodium phosphate, 150 mM NaCl, 10% glycerol, pH 8.0), with the exception of tests under pH 4 and pH 9. For pH 4, SG-11 (SEQ ID NO:9) was prepared at a concentration of 1 mg/ml in sodium acetate buffer (50 mM sodium acetate, 150 mM NaCl, pH 4). For pH 9, SG-11 (SEQ ID NO:9) was prepared at a concentration of 1 mg/ml in CAPSO (3-cyclohexylamino-2-hydroxy-1-propanesulfonic acid) buffer (50 mM CAPSO, 150 mM NaCl, pH 9).
Three samples treated by incubation at 40° C. for two weeks, oxidation (H2O2) or high pH 9, respectively, were analyzed by LC/MS/MS for PTMs. […] 7.84% of N53 was deamidated without any treatment.
After reduction, free cysteines were artificially carbamidomethylated by iodoacetamide to block cysteine residues from oxidation in the assays.

[3] = Stability in fecal slurry, SDS-PAGE and Coomassie blue (Example 14); conditions: 37° C., 10 min, 30 min, 1 hr, 2 hr; human fecal pellets in PBS; FIG. 24
trypsin = assay: Incubation with immobilized trypsin, SDS-PAGE (Example 14); type: in vitro ADME; conditions: room temperature, 10 min to 2 hr, PBS pH 7.4, FIG. 25
Procedure: An experiment was performed to assess generation of the fragment upon incubation in the presence of trypsin. Columns were prepared to contain 100 μl immobilized Trypsin slurry, washed twice with PBS, loaded with SG-11 (SEQ ID NO:9) diluted in PBS, pH 7.4, then incubated at room temperature for varied times. To stop the reaction, each column was centrifuged to remove protein from the column, then analyzed on an SDS-PAGE gel using Coomassie Blue visualization.

B1: SG-11 (SEQ ID NO:9): SG-11 (SEQ ID NO:3) with a FLAG-tag (DYKDDDDK) at the N-terminus (protein)
chain: MDYKDDDDKGSSHMLEGEESVVYVGKKGVIASLDVETLDQSYYDETELKSYVDAEVEDYTAEHGKNAVKVESLKVEDGVAKLKMKYKTPEDYTAFNGIELYQGKVVASLAAGYVYDGEFARVEEGKVVGAATKQDIYSEDDLKVAIIRANTDVKVDGEICYVSCQNVKLTGKDSVSIRDGYYLETGSVTASVDVTGQESVGTEQLSGTEQMEMTGEPVNADDTEQTEAAAGDGSFETDVYTFIVYK
modifications: N-terminal FLAG tag
For B1, the “Aggregation formation (analytical SEC)” value ([1]; 4-days incubation at 37° C. in presence of 2.5% (v/v) mercaptoethanol, 50 mM sodium phosphate, 150 mM NaCl, 10% glycerol) was “Aggregation was greatly suppressed”, the “Aggregation formation (analytical SEC)” value ([1]; 4° C. for 3 weeks in Buffer C (100 mM sodium phosphate, pH 7.0, 0.5 M sorbitol), vs freshly thawed protein) was “No noticeable change” and the “Aggregation formation (analytical SEC)” value ([1]; 37° C. for one week in Buffer C (100 mM sodium phosphate, pH 7.0, 0.5 M sorbitol)) was “clearly showed aggregation peaks”. For the same molecule, the “Aggregates (SEC-HPLC)” value ([2]; 4° C.) was “low level of aggregates”, the “Aggregates (SEC-HPLC)” value ([2]; 37° C.) was “major aggregation occurred” and the “Aggregation or degradation (SEC-HPLC)” value ([2]; mechanical stress) was “do not cause either protein aggregation or degradation”. The “Aggregation or degradation (SEC-HPLC)” value ([2]; repeated freeze and thaw) was “do not cause either protein aggregation or degradation”, the “Stability in fecal slurry (SDS-PAGE)” value [3] was “generation of a predominant band with an apparent molecular weight of about 25 kDa” and the “Product on incubation with trypsin (SDS-PAGE)” value (trypsin) was “a predominant band is generated in the presence of trypsin”.
